Laboratory results published in US20210070881A1 (DENALI THERAPEUTICS, published 2021).
Numbering of substitutions follows the chain as printed.

B1: 1D2 (antibody, human IgG1, V domains shown)
VH: EVHVKQSGPELKKPGETVTISCKASGYTFTTYGMTWVRQAPGKDLEWMGWINTHSGVPIYADDFKGRFAFSLETSAGTAYLQINNLKNEDTATYFCTRRGRLGHYFDYWGQGTSVTVSS
VL: DIVMTQSQKFMSTSVGDRVSVTCKASQNVGTNVAWYQQKPGQSPKLLIYWASTRHTGVPDRFTGSGSGTDFTLTISNVQSEDLADYFCQQYSSYPYTFGGGTKLELK
notes: chimeric, human IgG1/kappa; also called Clone 1D2
B2: 2E1 (antibody, human IgG1, V domains shown)
VH: EVQLQQPGTELVRPGTSVKLSCKASGYTFTNFWMHWVKQRPGQGLEWIGVINPSDTYTKFNQKFRGKATLTVDTSSSTAYMQLSSLTSEDSAVYFCARPTVGLDYWGQGTSVTVSS
VL: DIVMTQSQKFMPTSVGDRVSVTCKASQNVGSNVAWYQQKSGQSPKALIYSASHRYSGVPDRFTGSGSGTDFTLTISNVQSEDLAEYFCQQYNSYPYTFGGGTKLEIK
notes: chimeric, human IgG1/kappa; also called Clone 2E1
B3: 4A4 (antibody, human IgG1, V domains shown)
VH: EVKLMESGPGLVAPSQSLSITCTVSGFSLTSYPINWVRQPPGKGLEWLGVIWTGGSTNYNSALKSRLSISRDNSKSQVFLKMNSLQTDDTARYYCARWDGYFGAFDYWGQGTTVTVSS
VL: DIVMTQTTSSLSASLGDRVTISCRASQDISKYLNWYQQKPDGTVKLLIYYTSRLHSGVPSRFSGSGSGTDYSLTISNLEQEDIATYFCQQSLSLPYTFGGGTRLEIK
notes: chimeric, human IgG1/kappa; also called Clone 4A4
B4: 1D7 (antibody, human IgG1, V domains shown)
VH: EVKLMESGPGLVAPSQSLSISCTVSGFSLTSYGVDWVRQPPGKGLEWLGVVWGGGSTNYNSALMSRLSISKDNSKSQVFLKMNSLQTDDTAMYYCAKRDYFGGLNVWGTGTTVTVSS
VL: B3 VL with S10P, A13V, K39R, Q89H, S91G, L92H, S93K, L94I, R103K, I106L
notes: chimeric, human IgG1/kappa; also called Clone 1D7
B5: 1F1 (antibody, human IgG1, V domains shown)
VH: EVQLQQSGAELMKPGASVKLSCKATGYTFIGYWIDWVKQRPGHGLEWIGEILPGGGSTNHNEKFKGKATFTTDTSSNTVYMQLSSLTTEDSAIYYCAREGSYGNYYFDYWGQGTSVTVSS
VL: DIQMTQTPLSLPVSLGDQASISCRSSQSIVHSNGNTYLEWYLQKPGQSPKLLIYKVSNRFSGVPDRFSGSGSGTDFTLKISRVEAEDLGVYYCFQGSHVPYTFGGGTKLEIK
notes: chimeric, human IgG1/kappa; also called Clone 1F1
B6: 3C11 (antibody, human IgG1, V domains shown)
VH: EVQLQQSGADLMKPGASVKLSCKATGYTFTGYWIEWVKQRPGHGLEWIGEIFPGSVSTNYNEKFKGKATFTADTSSNTAYMQLSSLTTEDSAIYYCARSPIYYDYADYWGQGTTLTVSS
VL: DIVLSQSHKFMSTSVGDRVSITCKASQDVGTAVAWYQQKPGQSPKALIYLASNRHTGVPDRFTGSGSGTDFTLTISNVQSEDLAEYFCQQYNSYPYTFGGGTRLEIK
notes: chimeric, human IgG1/kappa; also called Clone 3C11
B7: 4H10 (antibody, human IgG1, V domains shown)
VH: EIQLQQSGPELKKPGETVKISCKTSGYTFTTYGMTWVKQAPGKGLKWMGWINTYSGVPIYADDFKGRSAFSLETSASTAYLQINNLENEDTATYFCARRGSTAHYFDYWGQGTTVTVSS
VL: DIVLTQSHKFMSTSVGDRVSITCKASQDVSTAVAWYQQKPGQSPKLLIYWASTRHTGVPDRFTGSGSGTDYTLTISSVQAEDLALYYCQQHYSTPYTFGGGTKLELK
notes: chimeric, human IgG1/kappa; also called Clone 4H10
B8: hu2H8v29.1 (antibody, V domains shown)
VH: QVQLVQSGAEVKKPGASVKVSCKASGYTFTNFWIHWVRQAPGQGLEWMGMIDPSDSYTKYNQKFKARATLTVDTSTSTVYMELSSLRSEDTAVYYCARSGVAFPYWGQGTLVTVSS
VL: DIQMTQSPSSLSASVGDRVTITCKASQDVGRNVAWYQQKPGKSPKSLIYSASHYYSGVPSRFSGSGSGTDFTLTISSLQPEDFATYFCQQYNSYPYTFGQGTKVEIK
notes: captured via human Fc; also called hu2H8_HC6 + hu2H8_LC5.1
B9: hu2H8v29.3 (antibody, V domains shown)
VH: B8 VH
VL: B8 VL with Y54M
notes: captured via human Fc; also called hu2H8_HC6 + hu2H8_LC5.3
B10: hu2H8v29.2 (antibody, V domains shown)
VH: B8 VH
VL: B8 VL with Y54N
notes: captured via human Fc; also called hu2H8_HC6 + hu2H8_LC5.2
B11: hu2H8v29.5 (antibody, V domains shown)
VH: B8 VH
VL: B8 VL with Y54K
notes: captured via human Fc; also called hu2H8_HC6 + hu2H8_LC5.5
B12: hu2H8v29.6 (antibody, V domains shown)
VH: B8 VH
VL: B8 VL with Y54L
notes: captured via human Fc; also called hu2H8_HC6 + hu2H8_LC5.6
B13: hu2H8v29.4 (antibody, V domains shown)
VH: B8 VH
VL: B8 VL with Y54Q
notes: captured via human Fc; also called hu2H8_HC6 + hu2H8_LC5.4
B14: hu2H8v29.27 (antibody, V domains shown)
VH: B8 VH with D55S, V101A, A102S, F103L
VL: B8 VL with N92Y
notes: captured via human Fc; also called hu2H8_LC5.12 + hu2H8_HC6.16
B15: hu2H8v29.16 (antibody, V domains shown)
VH: B8 VH with M50I
VL: B8 VL with Y54R
notes: captured via human Fc; also called hu2H8_LC5 + hu2H8_HC6.5
B16: hu2H8v29.13 (antibody, V domains shown)
VH: B8 VH with F32Y
VL: B8 VL with Y54R
notes: captured via human Fc; also called hu2H8_LC5 + hu2H8_HC6.2
B17: hu2H8v29.26 (antibody, V domains shown)
VH: B8 VH with V101G, F103L
VL: B8 VL with Y54R
notes: captured via human Fc; also called hu2H8_LC5 + hu2H8_HC6.15
B18: hu2H8v29.14 (antibody, V domains shown)
VH: B8 VH with T30N, N31S, F32Y
VL: B8 VL with Y54R
notes: captured via human Fc; also called hu2H8_LC5 + hu2H8_HC6.3
B19: hu2H8v29.17 (antibody, V domains shown)
VH: B8 VH with D55S
VL: B8 VL with Y54R
notes: captured via human Fc; also called hu2H8_LC5 + hu2H8_HC6.6
B20: hu2H8v29.19 (antibody, V domains shown)
VH: B8 VH with D55G
VL: B8 VL with Y54R
notes: captured via human Fc; also called hu2H8_LC5 + hu2H8_HC6.8
B21: hu2H8v29.22 (antibody, V domains shown)
VH: B8 VH with F103L, Y105S
VL: B8 VL with Y54R
notes: captured via human Fc; also called hu2H8_LC5 + hu2H8_HC6.11
B22: hu2H8v29.25 (antibody, V domains shown)
VH: B8 VH with V101A, F103L
VL: B8 VL with Y54R
notes: captured via human Fc; also called hu2H8_LC5 + hu2H8_HC6.14
B23: hu2H8v29.20 (antibody, V domains shown)
VH: B8 VH with S56A
VL: B8 VL with Y54R
notes: captured via human Fc; also called hu2H8_LC5 + hu2H8_HC6.9
B24: hu2H8v29.21 (antibody, V domains shown)
VH: B8 VH with F103L
VL: B8 VL with Y54R
notes: captured via human Fc; also called hu2H8_LC5 + hu2H8_HC6.10
B25: hu2H8v29.18 (antibody, V domains shown)
VH: B8 VH with D55E
VL: B8 VL with Y54R
notes: captured via human Fc; also called hu2H8_LC5 + hu2H8_HC6.7
B26: hu2H8v29.24 (antibody, V domains shown)
VH: B8 VH with V101A, A102S, F103L
VL: B8 VL with Y54R
notes: captured via human Fc; also called hu2H8_LC5 + hu2H8_HC6.13
B27: hu2H8v29.28 (antibody, V domains shown)
VH: B8 VH with S54D, D55S, V101A, A102S, F103L
VL: B8 VL with N92Y
notes: captured via human Fc; also called hu2H8_LC5.12 + hu2H8_HC6.17
B28: hu2H8v29.23 (antibody, V domains shown)
VH: B8 VH with A102S, F103L
VL: B8 VL with Y54R
notes: captured via human Fc; also called hu2H8_LC5 + hu2H8_HC6.12
B29: hu2H8v29.15 (antibody, V domains shown)
VH: B8 VH with W33Y
VL: B8 VL with Y54R
notes: captured via human Fc; also called hu2H8_LC5 + hu2H8_HC6.4

These binders were tested against cellular BACE1 in CHOK1-huAPP cells (assay: cell-based or functional assay).

Row | % Max Inhibition [%] | Cellular IC50 [nM] | Binder
1 | 47 | 4 | B1
2 | 63 | 34 | B2
3 | 53 | 17 | B3
4 | 55 | 4 | B4
5 | 63 | 11 | B5
6 | 56 | 36 | B6
7 | 46 | 18 | B7

The binders below were run against T1, recombinant BACE1 (BACE1 extracellular domain, R&D Systems Cat#931-AS) (UniProt P56817 22-457) (assay: SPR Biacore 8K, antibody captured, BACE1 analyte).
T1 construct: extracellular domain; also called BACE1 extracellular domain protein
Method: (§1) The binding affinities of the affinity matured humanized 2H8 variants for BACE1 were determined by surface plasmon resonance using a Biacore™ 8K instrument. […] The binding was monitored for 300 seconds and then dissociation was monitored for 600+ seconds in HBS-EP+ running buffer (GE Healthcare Life Sciences, BR100669). Binding response was corrected by subtracting the RU from a blank flow cell. A 1:1 Langmuir model of simultaneous fitting of kₒₙ and koff was used for kinetics analysis.

T1 sequence (P56817 22-457): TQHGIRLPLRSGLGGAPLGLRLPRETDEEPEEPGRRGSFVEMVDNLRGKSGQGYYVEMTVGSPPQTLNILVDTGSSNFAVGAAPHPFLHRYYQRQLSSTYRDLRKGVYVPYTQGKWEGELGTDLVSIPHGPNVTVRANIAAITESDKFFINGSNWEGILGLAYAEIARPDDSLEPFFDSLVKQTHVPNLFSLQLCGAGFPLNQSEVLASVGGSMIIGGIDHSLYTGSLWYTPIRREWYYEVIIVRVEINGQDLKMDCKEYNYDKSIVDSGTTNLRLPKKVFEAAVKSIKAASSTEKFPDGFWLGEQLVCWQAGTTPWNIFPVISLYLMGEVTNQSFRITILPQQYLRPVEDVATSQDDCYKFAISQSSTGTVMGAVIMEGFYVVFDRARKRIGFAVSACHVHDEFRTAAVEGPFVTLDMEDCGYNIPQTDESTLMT

Row | Kd [nM] | Binder
8 | 7.22 | B8
9 | 6.93 | B9
10 | 8.16 | B10
11 | 8.21 | B11
12 | 7.51 | B12
13 | 6.53 | B13

Target: T1, recombinant BACE1 (BACE1 extracellular …)
Assay: SPR Biacore 8K, antibody captured, BACE1 analyte
Remark: another data set of the same source
Method: as §1

Row | Kd [nM] | Binder
14 | 3.4 | B14
15 | 31.3 | B15
16 | 9.16 | B16
17 | 8.52 | B17
18 | 9.32 | B18
19 | 8.04 | B19
20 | 9.95 | B20
21 | 6 | B21
22 | 6.08 | B22
23 | 8.69 | B23
24 | 6.68 | B24
25 | 10.3 | B25
26 | 5.73 | B26
27 | 4.8 | B27
28 | 7 | B28
29 | 19.2 | B29

What follows are binders tested against T1, recombinant BACE1 (BACE1 extracellular …) (assay: SPR Biacore T200, IgG captured, BACE1 analyte).
Method: The affinity of chimeric IgG antibodies for recombinant BACE1 was determined by surface plasmon resonance using a Biacore™ T200 instrument. Biacore™ Series S CMS sensor chips were immobilized with monoclonal mouse anti-human IgG (Fc) antibody (e.g., using a human antibody capture kit from GE Healthcare). 1 μg/mL of antibody was captured for 1 minute on each flow cell and serial 3-fold dilutions of recombinant BACE1 were injected at a flow rate of 30 μL/min. Each sample was analyzed with a 3-minute association and a 10-minute dissociation. After each injection, the chip was regenerated using 3M MgCl₂. Binding response was corrected by subtracting the RU from a flow cell capturing an irrelevant IgG at similar density. A 1:1 Langmuir model of simultaneous fitting of kₒₙ and koff was used for analysis of kinetics.

Row | Kd [nM] | koff [s⁻¹] | kon [M⁻¹ s⁻¹] | Binder
30 | 3.1 | 0.00024 | 78000 | B1
31 | 71 | 0.0013 | 18000 | B2
32 | 15 | 0.0012 | 83000 | B3
33 | 16 | 0.00095 | 59000 | B4
34 | 5 | 0.00024 | 49000 | B5
35 | 61 | 0.0013 | 21000 | B6
36 | 23 | 0.0022 | 96000 | B7
